Measured values: the Immune Epitope Database (IEDB)

Assays:
Test in all cases: IEDB peptide-MHC binding, purified MHC/competitive/radioactivity; filed as Kd, often an IC50 or EC50 that approximates it; ≥ and ≤ were set here for values at or beyond the usual limits of such assays
[1] = molecular target: HLA-A*33:01
[2] = molecular target: HLA-A*11:01
[3] = molecular target: HLA-A*03:01
[4] = molecular target: HLA-A*31:01
[5] = molecular target: HLA-A*68:01
[6] = source organism: Vaccinia virus WR
[7] = source organism: SARS coronavirus Tor2
[8] = source organism: Mammarenavirus brazilense
[9] = source organism: Mammarenavirus juninense
[10] = source organism: Mammarenavirus whitewaterense
[11] = source organism: Mammarenavirus guanaritoense

| Sequence | Kd [1, 6] | Kd [2, 6] | Kd [3, 6] | Kd [4, 6] | Kd [5, 6] | further results |
| --- | --- | --- | --- | --- | --- | --- |
| FVDINRNNK | ≥ 46800 nM | 50.8 nM | 281 nM | 2300 nM | 25.1 nM | – |
| GADPNACDK | 8360 nM | 6240 nM | ≥ 37700 nM | 3840 nM | 90.6 nM | – |
| GLLATNNVFR | – | – | – | – | – | Kd [1, 7]: 5920 nM; Kd [2, 7]: 816 nM; Kd [3, 7]: 428 nM; Kd [4, 7]: 487 nM; Kd [5, 7]: 794 nM |
| GSFCTQLNR | – | – | – | – | – | Kd [1, 7]: ≥ 33100 nM; Kd [2, 7]: 76.1 nM; Kd [3, 7]: 1040 nM; Kd [4, 7]: 51.1 nM; Kd [5, 7]: 229 nM |
| IFVDTMSIY | ≥ 29100 nM | 921 nM | 18300 nM | 6760 nM | 882 nM | – |
| IIKSDHEFVK | ≥ 70000 nM | 443 nM | 4270 nM | 15700 nM | 1820 nM | – |
| ISFKSINKVY | ≥ 63300 nM | 12200 nM | 2530 nM | 9890 nM | 6590 nM | – |
| ISKIYTLIYR | 0.458 nM | 226 nM | 691 nM | 0.337 nM | 5.02 nM | – |
| ITFLRPVLK | 84.5 nM | 6.45 nM | 4.53 nM | 7.61 nM | 1.14 nM | – |
| ITLKIIETY | ≥ 77700 nM | ≥ 77900 nM | ≥ 78000 nM | 751 nM | ≥ 77700 nM | – |
| IVTSLAIKNY | 5680 nM | 51.7 nM | 1110 nM | 8820 nM | 1410 nM | – |
| KCFGNTALAK | – | – | – | – | – | Kd [1, 8]: ≥ 70000 nM; Kd [2, 8]: 8480 nM; Kd [3, 8]: 830 nM; Kd [4, 8]: 972 nM; Kd [5, 8]: ≥ 22500 nM |
| KCFGNTAVAK | – | – | – | – | – | Kd [1, 9]: 1470 nM; Kd [2, 9]: 6460 nM; Kd [3, 9]: 579 nM; Kd [4, 9]: 181 nM; Kd [5, 9]: 18800 nM |
| KIGHHVELQH | – | – | – | – | – | Kd [1, 10]: ≥ 49800 nM; Kd [2, 10]: ≥ 69700 nM; Kd [3, 10]: ≥ 47100 nM; Kd [4, 10]: 25.2 nM; Kd [5, 10]: ≥ 70100 nM |
| KLQARNIQK | 927 nM | 17.8 nM | 8.03 nM | 13.5 nM | 169 nM | – |
| KVSAQNISFK | 3320 nM | 131 nM | 5070 nM | 433 nM | 3380 nM | – |
| LAIKNYYRK | 1440 nM | 75.9 nM | ≥ 45700 nM | 783 nM | 12.7 nM | – |
| LFLLFLEITY | 9640 nM | 3720 nM | 1960 nM | 3460 nM | 274 nM | – |
| LLFADINGK | – | – | – | – | – | Kd [1, 7]: ≥ 50900 nM; Kd [2, 7]: 8.81 nM; Kd [3, 7]: 30.8 nM; Kd [4, 7]: 2560 nM; Kd [5, 7]: 120 nM |
| LLGDSDSVAK | ≥ 70000 nM | 584 nM | 203 nM | 3580 nM | 10900 nM | – |
| LTALLSCIR | 1100 nM | 914 nM | ≥ 78000 nM | 244 nM | 7.66 nM | – |
| LTNKHCLNNY | ≥ 66000 nM | 2070 nM | 1380 nM | 4420 nM | ≥ 21200 nM | – |
| MIIGHIGHHY | ≥ 55400 nM | 103 nM | 47 nM | 151 nM | 19.3 nM | – |
| MMFINSTCY | 3930 nM | 159 nM | 21.2 nM | 129 nM | 145 nM | – |
| MMNRDKIPIY | ≥ 70000 nM | 3800 nM | 1030 nM | 10400 nM | ≥ 70200 nM | – |
| MSHVKSVTK | 1930 nM | 8.05 nM | 18.6 nM | 20.1 nM | 9 nM | – |
| MSMGDIITY | 13300 nM | 5.67 nM | 134 nM | 8570 nM | 1.85 nM | – |
| NAPIKEFKAK | 3310 nM | ≥ 27700 nM | 15600 nM | 8830 nM | 187 nM | – |

| Sequence | Kd [1, 6] | Kd [2, 6] | Kd [3, 6] | Kd [4, 6] | Kd [5, 6] | further results |
| --- | --- | --- | --- | --- | --- | --- |
| NFFTELENK | 11300 nM | 1690 nM | ≥ 69500 nM | 7320 nM | 1280 nM | – |
| NIILSKIPY | 9760 nM | 552 nM | 1180 nM | 14400 nM | 778 nM | – |
| NISIIVLFQR | 1400 nM | 670 nM | 907 nM | 33.6 nM | 3.84 nM | – |
| NIVTFINDY | ≥ 77700 nM | ≥ 45900 nM | ≥ 78000 nM | 14600 nM | 535 nM | – |
| NLDPDNKMSY | ≥ 65800 nM | 582 nM | 950 nM | ≥ 41300 nM | 1460 nM | – |
| NTMCTEETKR | 4210 nM | 6410 nM | ≥ 32200 nM | 13300 nM | 17.8 nM | – |
| NVKKKNEGK | 17600 nM | ≥ 29700 nM | 6520 nM | ≥ 20400 nM | 142 nM | – |
| NYVHCFRKPH | – | – | – | – | – | Kd [1, 11]: 1430 nM; Kd [2, 11]: ≥ 69700 nM; Kd [3, 11]: ≥ 70000 nM; Kd [4, 11]: 12000 nM; Kd [5, 11]: ≥ 70100 nM |
| PVSMTYLYNK | ≥ 70000 nM | 107 nM | 1190 nM | 6150 nM | 12900 nM | – |
| QFANVISKIY | 1200 nM | 8660 nM | 3390 nM | 1140 nM | 1950 nM | – |
| QISRVNDLNR | 913 nM | 335 nM | 1940 nM | 122 nM | 88 nM | – |
| RFVKFNDYR | 237 nM | 14800 nM | 19800 nM | ≤ 1 nM | 38.2 nM | – |
| RLGLVLDDY | ≥ 77700 nM | 3560 nM | 11.1 nM | ≥ 77900 nM | ≥ 44500 nM | – |
| RVVVQIDPEY | ≥ 70000 nM | ≥ 23400 nM | 14200 nM | ≥ 70000 nM | 1190 nM | – |
| SAEDNYLAK | ≥ 77700 nM | 56.1 nM | ≥ 26300 nM | ≥ 53500 nM | 11400 nM | – |
| SAGFSLWIYK | – | – | – | – | – | Kd [1, 7]: 3430 nM; Kd [2, 7]: 0.0935 nM; Kd [3, 7]: 75.3 nM; Kd [4, 7]: 52.1 nM; Kd [5, 7]: 31.1 nM |
| SCSYKIGHH | – | – | – | – | – | Kd [1, 10]: ≥ 77700 nM; Kd [2, 10]: ≥ 64800 nM; Kd [3, 10]: ≥ 78000 nM; Kd [4, 10]: ≥ 45800 nM; Kd [5, 10]: ≥ 77600 nM |
| SFKSINKVY | ≥ 77700 nM | 2770 nM | 1830 nM | 2130 nM | 6900 nM | – |
| SIMETIDPVY | ≥ 36600 nM | 4.36 nM | 222 nM | 9760 nM | 29 nM | – |
| SINSEYIESK | ≥ 70000 nM | 55.4 nM | 7720 nM | ≥ 70000 nM | 2580 nM | – |
| SLVKKNKKR | ≥ 77700 nM | ≥ 77900 nM | ≥ 78000 nM | ≥ 77900 nM | ≥ 77700 nM | – |
| SMDVLAEKK | ≥ 77700 nM | 25.7 nM | 911 nM | ≥ 22600 nM | 1270 nM | – |
| SRIFEELVWK | – | – | – | – | – | Kd [1, 10]: ≥ 52000 nM; Kd [2, 10]: 259 nM; Kd [3, 10]: 200 nM; Kd [4, 10]: 3640 nM; Kd [5, 10]: 477 nM |
| SSKGLACYR | 25.6 nM | 80.4 nM | 12800 nM | 37.6 nM | 5.33 nM | – |
| SVKTQFNYFK | – | – | – | – | – | Kd [1, 7]: 808 nM; Kd [2, 7]: 21.1 nM; Kd [3, 7]: 144 nM; Kd [4, 7]: 24.1 nM; Kd [5, 7]: 80 nM |
| SVPLPCQLMY | ≥ 53100 nM | 38 nM | 413 nM | ≥ 23200 nM | 14400 nM | – |
| TAIAKCNLDH | – | – | – | – | – | Kd [1, 10]: ≥ 34200 nM; Kd [2, 10]: ≥ 69700 nM; Kd [3, 10]: ≥ 70000 nM; Kd [4, 10]: 929 nM; Kd [5, 10]: 7070 nM |
